B1: SCNN1D (parent)
chain: FLGHHSFSVRPGTEATISIREDEV
B2: HDAC6 (parent)
chain: QEGLLDRCVSFQARFAEKEELMLV

Variants of: B1
Assay: protein stability index of a GFP-peptide fusion (GPS, HEK-293T) (PSI 1-6); higher = more stable
Conditions: c terminus: a fixed tail appended
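Further: lentivirally expressed fusions sorted by FACS into six bins by GFP to DsRed ratio, PSI derived from sequencing read proportions per bin multiplied by bin number.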

Protein stability index, by site and new letter:
S18: N 1.57; A 1.6; M 1.55; T 1.66; Q 1.79; E 2.49; L 2.2; K 1.67; V 1.25; H 1.33; Y 1.71; G 1.47; F 1.8; D 1.43; I 1.96; P 1.8; R 2.22
E23: Q 1.65; G 2.29; A 1.96; S 1.06; R 1.73; H 2.32; L 1.66; W 3.12; K 2.38; D 2.12; Y 2.54; V 2.05; T 1.41; F 2.45; P 1.99; N 2.1; I 2.23; C 1.88; M 1.91
T16: I 2.29; A 2.37; D 3.29; F 2.04; M 2.62; Q 2.8; H 1.87; E 1.62; P 1.85; K 1.75; N 2.05; W 1.4; R 2.46; C 1.29; L 1.49; Y 2.23; G 2.1; V 2.25; S 2.57
T13: E 2.09; V 1.49; F 1.91; D 1.63; P 1.88; N 1.49; L 2.71; G 1.25; A 1.77; I 1.44; H 2.03; C 1.58; K 2.37; S 1.18; Y 1.36; Q 1.97; R 1.7; M 1.73
I19: R 2.06; G 2.6; M 1.55; T 1.74; P 1.89; K 2.14; H 1.9; F 2.21; C 1.58; V 2.74; E 1.71; N 2.42; A 2.68; Y 1.52; W 1.32; S 2.13; L 2.16; Q 1.99; D 1.92
R20: F 3.02; V 1.65; Q 1.79; N 1.49; T 1.79; L 1.52; H 1.67; K 1.73; G 2.3; M 1.5; E 2.1; W 1.42; I 2.5; P 1.79; A 2.3; D 1.9; Y 1.77; C 2.24; S 2.27
D22: F 1.73; C 2.21; V 1.57; L 1.51; N 2.23; S 1.35; K 2.04; H 1.79; Q 1.39; E 2.11; P 1.74; W 1.77; A 1.89; T 2.07; Y 3.14; M 2.45; I 2.39; R 2.4
V24: H 1.76; L 1.66; R 1.49; N 1.99; M 2.75; W 1.44; Y 1.48; T 1.66; S 1.62; C 1.81; E 2.27; K 1.93; Q 2.25; P 1.76; G 1.9; F 1.76; I 1.8; A 1.8; D 2.15
A15: K 1.91; F 2.62; P 2.04; E 1.93; T 2.31; M 1.58; Y 1.71; I 1.95; Q 1.96; S 2.63; V 1.47; G 2.01; N 2; L 2.66; C 2.34; W 3.05; H 1.67; R 1.88; D 2.08
I17: F 1.36; Q 2.54; W 1.58; M 1.75; S 1.66; L 1.62; H 2.23; K 2.32; N 1.68; T 2.24; V 1.68; G 2.38; Y 2.79; C 1.96; R 2.07; A 2.44; D 2.12; E 2.1; P 2.19
E21: P 2.33; Q 1.74; L 2.48; S 1.8; R 2.6; T 2.55; A 2.25; H 1.48; M 2.08; W 2.45; Y 2.52; C 1.68; V 3.42; N 2.11; F 2.3; I 3.27; G 1.33; D 1.56; K 1.44
E14: R 2.1; M 1.25; F 1.37; A 1.92; Q 2.13; P 1.76; Y 1.19; D 1.13; I 1.77; S 1.77; C 1.65; T 2.24; N 1.82; V 2.18; H 2.11; K 1.93; G 2.31; L 1.92

Variants of: B2
Assay: as above
Conditions: c terminus: a fixed tail appended

Protein stability index: each site, then its substitutions
E2: H 1.96; S 2.5; I 2.12; K 1.94; Q 1.21; L 1.69; F 1.77; W 1.57; N 1.28; A 1.12; Y 1.8; P 2.56; T 2.14; V 2.44; C 2; M 1.62; D 1.83; R 1.95; G 2.52
G3: V 1.4; Y 1.31; D 2.12; W 1.79; E 2.54; T 1.97; Q 2.01; A 1.89; K 2.16; L 1.64; R 2.01; I 1.95; M 2.04; C 2.3; F 1.06; H 2.12; S 2.19; P 1.78; N 2.93
Q1: G 1.51; V 1.54; S 2.34; P 2.13; N 1.91; Y 1.25; H 1.54; K 1.39; M 1.94; C 1.39; W 1.47; A 1.94; D 1.85; L 2.33; T 1.77; F 1.18; I 2.48; E 2.51; R 1.63
L4: P 2.04; Q 1.99; G 1.43; D 1.75; K 1.94; C 2.73; F 2.47; I 1.79; N 2.06; S 1.75; R 1.79; T 1.91; H 1.44; V 1.9; Y 2.01; E 1.85; W 1.5; M 2.19; A 1.62
L5: R 1.78; Q 1.56; A 1.87; M 1.73; Y 1.79; K 1.72; V 2.06; D 2.62; F 1.33; C 1.34; N 2.36; T 1.87; P 1.83; E 3.01; H 1.67; S 1.9; G 1.71; I 2.07; W 1.58
D6: K 2.69; N 2.37; F 1.54; M 1.87; P 1.38; C 1.78; T 1.64; A 2.45; L 1.9; R 2; E 1.84; Q 1.87; S 2.13; H 2.09; G 1.74; I 1.69

Reference: the supplement of paper PMC10567573
